This is an account of results in publication PMC2923024.

The data set concerns hnRNP A1, P09651-2. Briefly: footprinting.

Consider “GGAUGUUCUCUUCACUGUGGGAUGAGGUAGUAGGUUGUAUAGUUUUACCCUCACACCCACCACUGGGAGAUAACUAUACAAUCUACUGUCUUUCCUAACGUGAUAGAAAAGUCUGCA [pri-let-7a-1 GGG/CCC]”, for which the binding entry was “no binding”.
